Columns and labels:
Assay type in all cases: biochemical, Saccharomyces cerevisiae
[1] = substrate: N[C@@H](CS)C(=O)O; test: CBS H2S production assay (AzMC fluorometric), tScCBS; conditions: other: tScCBS, Cys + Hcy, pH 8.6, 37.0 °C
Method: CBS H2S production assay. H2S-producing activity of CBS, utilizing Cys and Hcy, was determined using a fluorometric assay employing the H2S-selective fluorescent probe 7-azido-4-methylcoumarin (AzMC) as described previously. The reaction mixture in a total volume of 200 µL contained 50 mM Tris–HCl pH 8.6, 5 μM PLP, 2 mM Hcy, 10 μM AzMC and 500 ng tScCBS or HsCBS. The plate was incubated for 10 min at 37°C and the enzymatic activity was triggered by adding 0–50 mM Cys. The fluorescence of the mixtures at 450 nm (excited at 365 nm) was followed for 2 h at 37°C. All measurements were performed in triplicates using Tecan Infinite 200 PRO microplate reader. Kinetic data were analyzed using GraphPad Prism software.

[2] = substrate: N[C@@H](CO)C(=O)O; test: CBL-LDH coupled-coupled CBS assay, tScCBS; conditions: other: tScCBS, substrate varied with 2 mM Hcy, pH 8.9
Method: (§1) CBS coupled-coupled assay. CBS canonical activity utilizing Ser and Hcy was determined using cystathionine beta-lyase (CBL) and lactate-dehydrogenase (LDH) coupled-coupled assay as described previously with a few modifications. Native L-LDH from rabbit muscle was purchased from Sigma (catalog no. L2500) and recombinant CBL was purchased from Creative Enzymes (catalog no. NATE-1146). In a final volume of 150 µL, the reaction mixture contained 50 mM Tris–HCl pH 8.9, 20 µM PLP, 500 µM NADH, 1.3 µM LDH, 0.1 µM CBL, 0–20 mM Ser (or 0–50 mM Cys) and 500 ng of tScCBS or HsCBS. Assays with HsCBS were carried out in the absence or presence of 500 µM CBS allosteric activator S-adenosylmethionine (SAM). The reaction was triggered by the addition of 2 mM Hcy and the oxidation of NADH to NAD^+ was followed by monitoring the decrease in absorbance at 340 nm over time (ε340 = 6220 M^−1.cm^−1). […] All measurements were performed in triplicates using Tecan Infinite 200 PRO microplate reader. Kinetic data were analyzed using GraphPad Prism software.

[3] = substrate: N[C@@H](CS)C(=O)O; test: CBL-LDH coupled-coupled CBS assay, tScCBS; conditions: other: tScCBS, substrate varied with 2 mM Hcy, pH 8.9
Method: as §1

B1: tScCBS (Saccharomyces cerevisiae S288C) (protein)
chain: MTKSEQQADSRHNVIDLVGNTPLIALKKLPKALGIKPQIYAKLELYNPGGSIKDRIAKSMVEEAEASGRIHPSRSTLIEPTSGNTGIGLALIGAIKGYRTIITLPEKMSNEKVSVLKALGAEIIRTPTAAAWDSPESHIGVAKKLEKEIPGAVILDQYNNMMNPEAHYFGTGREIQRQLEDLNLFDNLRAVVAGAGTGGTISGISKYLKEQNDKIQIVGADPFGSILAQPENLNKTDITDYKVEGIGYDFVPQVLDRKLIDVWYKTDDKPSFKYARQLISNEGVLVGGSSGSAFTAVVKYCEDHPELTEDDVIVAIFPDSIRSYLTKFVDDEWLKKNNLWDDDVL
notes: 6xHis (C); made in house
Km [1]: 6700 ± 1500 µM | kcat [1]: 3.4 ± 0.3 s⁻¹ | kcat/Km [1]: 510 M⁻¹ s⁻¹ | Km [2]: 2000 ± 400 µM | Vmax [2]: 4.18 µmol/min/mg | kcat [2]: 2.7 ± 0.1 s⁻¹ | kcat/Km [2]: 1340 M⁻¹ s⁻¹ | Km [3]: 2500 ± 200 µM | kcat [3]: 1.7 ± 0.1 s⁻¹ | kcat/Km [3]: 690 M⁻¹ s⁻¹

— publication PMC9304066, “H2S biogenesis by cystathionine beta-synthase: mechanism of inhibition by aminooxyacetic acid and unexpected role of serine” (Cellular and Molecular Life Sciences: CMLS, 2022)
